In US20250074973A1 (ANNEXON, published 2025):

Biological target: T1, human C1q (complement factor C1q, chains A, B and C) (Homo sapiens, UniProt P02745 23-245; P02746 28-253; P02747 29-245)
T1 construct: Endogenous C1q in serum and CSF of the treated human subjects
Assay: in vivo target engagement (PK/PD) in serum and CSF of dosed HD patients

T1 sequence (P02745 23-245 limits assumed, chain 1 of 3): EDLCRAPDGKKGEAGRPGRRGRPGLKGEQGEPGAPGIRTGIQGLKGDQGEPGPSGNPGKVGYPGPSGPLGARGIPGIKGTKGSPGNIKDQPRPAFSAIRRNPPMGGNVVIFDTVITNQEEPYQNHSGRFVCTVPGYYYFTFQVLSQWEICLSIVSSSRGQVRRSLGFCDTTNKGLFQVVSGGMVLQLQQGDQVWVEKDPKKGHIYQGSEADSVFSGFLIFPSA
T1 sequence (P02746 28-253 limits assumed, chain 2 of 3): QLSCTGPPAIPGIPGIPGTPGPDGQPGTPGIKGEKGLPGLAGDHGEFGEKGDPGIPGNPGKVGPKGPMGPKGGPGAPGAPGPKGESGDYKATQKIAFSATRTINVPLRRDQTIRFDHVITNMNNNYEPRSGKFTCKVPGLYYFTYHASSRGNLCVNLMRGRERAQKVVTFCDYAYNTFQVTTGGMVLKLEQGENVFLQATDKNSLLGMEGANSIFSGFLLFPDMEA
T1 sequence (P02747 29-245 limits assumed, chain 3 of 3): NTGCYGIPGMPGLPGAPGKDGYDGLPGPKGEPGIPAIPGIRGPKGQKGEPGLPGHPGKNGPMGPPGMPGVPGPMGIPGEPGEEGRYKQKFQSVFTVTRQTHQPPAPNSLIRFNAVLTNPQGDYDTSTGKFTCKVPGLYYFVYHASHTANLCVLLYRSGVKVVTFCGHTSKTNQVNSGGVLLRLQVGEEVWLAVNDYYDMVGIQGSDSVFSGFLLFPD

binding result: binds
B1: full-length C1q antibody (heavy chain SEQ ID NO: 14; light chain SEQ ID NO: 40) (antibody, human IgG4 S228P, kappa)
heavy: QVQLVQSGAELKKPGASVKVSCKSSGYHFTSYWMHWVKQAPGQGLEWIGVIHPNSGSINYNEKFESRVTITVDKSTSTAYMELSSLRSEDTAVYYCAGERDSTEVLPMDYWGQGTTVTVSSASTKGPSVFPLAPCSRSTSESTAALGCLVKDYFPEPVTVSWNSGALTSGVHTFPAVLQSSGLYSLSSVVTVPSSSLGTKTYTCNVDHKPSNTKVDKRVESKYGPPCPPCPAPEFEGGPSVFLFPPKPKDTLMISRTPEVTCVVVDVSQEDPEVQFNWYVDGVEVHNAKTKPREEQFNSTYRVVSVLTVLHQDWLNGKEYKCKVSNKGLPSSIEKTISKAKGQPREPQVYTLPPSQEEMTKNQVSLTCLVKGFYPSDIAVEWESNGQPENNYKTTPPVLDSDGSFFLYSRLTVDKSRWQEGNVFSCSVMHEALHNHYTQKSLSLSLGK
light: DVQITQSPSSLSASLGERATINCRASKSINKYLAWYQQKPGKAPKLLIYSGSTLQSGIPARFSGSGSGTDFTLTISSLEPEDFAMYYCQQHNEYPLTFGQGTKLEIKRTVAAPSVFIFPPSDEQLKSGTASVVCLLNNFYPREAKVQWKVDNALQSGNSQESVTEQDSKDSTYSLSSTLTLSKADYEKHKVYACEVTHQGLSSPVTKSFNRGEC
notes: also called full-length anti-C1q antibody; anti-C1q antibody
